Data reported in publication PMC6754406, “Ran pathway-independent regulation of mitotic Golgi disassembly by Importin-α” (Nature Communications, 2019).

Tests used:
p115-CTD (a.a. 780–930) = experiment: Isothermal titration calorimetry (ITC), p115-CTD; conditions: ITC (MicroCal iTC200), 25 °C, 20 mM HEPES pH 7.4, 1 mM DTT, 50 mM NaCl; one-sites binding model
Description: Phosphorylation of GM130 on Ser-25 is correlated with p115 dissociation, with this process appearing to be specific to mitosis and being responsible for reduction of p115-mediated vesicle fusion to Golgi membranes[5]–[7],[9],[10]. The N-terminal region of GM130 and the p115 C-terminus interact[11],[12], so we purified recombinant proteins containing these two regions and then assessed their binding affinity by isothermal titration calorimetry (ITC). The wild type GM130 N-terminal region (a.a. 1-85; hereafter GM130-WT) directly bound p115 (a.a. 780–930; hereafter p115-CTD) (Fig. 1a). Furthermore, we examined if GM130 phosphorylation reduces the binding affinity for p115. […] We found in competition-binding assays that p115-CTD pulldown by GST-GM130-S25D was reduced when we added increasing amounts of Importin-α lacking the IBB domain (a.a. 70–524; hereafter Importin-α(ΔIBB)) (Fig. 1c). […]
To purify p115 (a.a. 780–930), cells containing p115 (a.a. […]) were resuspended in a buffer containing 50 mM K-phosphate (pH 7.4), 150 mM NaCl, and 2 mM β-mercaptoethanol. […] Fractions containing p115 protein were pooled and loaded into SEC (Superdex 75 16/600) and analyzed by SDS–PAGE. […]
Binding affinities of different GM130 proteins to Importin-α and Importin-β were measured by ITC (MicroCal iTC200). […] Protein concentrations were determined spectrophotometrically with respective extinction coefficients. […]

[1] = system: Importin-β (HEK293T cell lysate); experiment: GST pulldown of Importin-β from HEK293T cell lysates; format: binding
Experimental: HEK293T cells were lysed in RIPA buffer containing 50 mM Tris, 150 mM NaCl, 1% NP-40, 1% sodium deoxycholate, 0.1% SDS, 1 mM phenylmethyl sulphonyl fluoride, 1 μg/ml aprotinin, and 1 μg/ml leupeptin. Supernatants were collected after centrifugation at 21,000×g for 10 min at 4 °C. Cell lysates were incubated with 5 µM of GST-GM130-WT, GST-GM130-S25D, or GST-GM130-S25D/K34A, and glutathione-coupled sepharose beads (GE Healthcare). After three pre-washes with buffer containing 150 mM NaCl, proteins were eluted using a buffer containing 50 mM of reduced glutathione. Eluted proteins were analyzed by SDS–PAGE, followed by Western blotting using antibodies against GM130 (Abcam ab52649), Importin-α (R&D Systems MAB6207), and Importin-β (Abcam ab2811). Uncropped scans of Western blots are provided in Supplementary Fig. 7.
Sup ple me ntary Figure 3. GM 130 is resistant to IBB displacement upon in teracting with […]
a-d, a, SE C (Superdex 200) elution profile for full-length Importin-α•GST-GM130-S25D (re d line ), full-length Importin-α (blue line), an d G ST-GM130-WT (green line). […] Th e v o i d volum e (Vo) is indicated. e, Western blotting analysis of Importin-α pull-down by GST-GM130-WT and GST-GM130-S25D from HEK293T ce l l l ys at es. […] Data repres ent mean ± standard deviation from three independent experiments. […]

Kd (p115-CTD (a.a. 780–930)): ~980 nM
B1: GM130: GM130 (recombinant N-terminal region), variant not specified at the place (protein)
chain: MWPQPRLPPRPAMSEETRQSKLAAAKKKLREYQQRNSPGVPTGAKKKKKIKNGSNPETTTSGGCHSPEDTPKDNAATLQPSDDTVLPGGVPSPGASLTSMAASQNHDADNVPNLMDETKTFSSTESLRQLSQQLNGLVCESATCVNGEGPASSANLKDLESRYQQLAVALDSSYVTNKQLNITIEKLKQQNQEITDQLEEEKKECHQKQGALREQLQVHIQTIGILVSEKAELQTALAHTQHAARQKEGESEDLASRLQYSRRRVGELERALSAVSTQQKKADRYNKELTKERDALRLELYKNTQSNEDLKQEKSELEEKLRVLVTEKAGMQLNLEELQKKLEMTELLLQQFSSRCEAPDANQQLQQAMEERAQLEAHLGQVMESVRQLQMERDKYAENLKGESAMWRQRMQQMSEQVHTLREEKECSMSRVQELETSLAELRNQMAEPPPPEPPAGPSEVEQQLQAEAEHLRKELEGLAGQLQAQVQDNEGLSRLNREQEERLLELERAAELWGEQAEARRQILETMQNDRTTISRALSQNRELKEQLAELQSGFVKLTNENMEITSALQSEQHVKRELGKKLGELQEKLSELKETVELKSQEAQSLQQQRDQYLGHLQQYVAAYQQLTSEKEVLHNQLLLQTQLVDQLQQQEAQGKAVAEMARQELQETQERLEAATQQNQQLRAQLSLMAHPGEGDGLDREEEEDEEEEEEEAVAVPQPMPSIPEDLESREAMVAFFNSAVASAEEEQARLRGQLKEQRVRCRRLAHLLASAQKEPEAAAPAPGTGGDSVCGETHRALQGAMEKLQSRFMELMQEKADLKERVEELEHRCIQLSGETDTIGEYIALYQSQRAVLKERHREKEEYISRLAQDKEEMKVKLLELQELVLRLVGDRNEWHGRFLAAAQNPADEPTSGAPAPQELGAANQQGDLCEVSLAGSVEPAQGEAREGSPRDNPTAQQIMQLLREMQNPRERPGLGSNPCIPFFYRADENDEVKITVI
Importin-α pulled down more than Importin-β [1]: ~ 10 -fold
Western blot signal of Importin-β reduced compared to Importin-α FL ([1]; same acquisition conditions): more than 10 -fold
